Reference: patent US20100310640A1
Values belong to the binder of their own block, whether it stands above or below them.

How the values were obtained:
Details in all cases: remark: other sources report otherwise
[1] = molecular target: T1, HLA-DR molecule DRB1*0101 (human); assay: radioligand inhibition, purified HLA-DR
T1 chain 1: not shown
T1 chain 2: not shown

[2] = molecular target: T2, HLA-DR molecule DRB5*0101 (human); assay: radioligand inhibition, purified HLA-DR
T2 chain 1: not shown
T2 chain 2: not shown

[3] = molecular target: T3, HLA-DR molecule DRB1*0404 (human); assay: radioligand inhibition, purified HLA-DR
T3 chain 1: not shown
T3 chain 2: not shown

[4] = molecular target: T4, HLA-DR molecule DRB1*0405 (human); assay: radioligand inhibition, purified HLA-DR
T4 chain 1: not shown
T4 chain 2: not shown

[5] = molecular target: T5, HLA-DR molecule DRB1*0701 (human); assay: radioligand inhibition, purified HLA-DR
T5 chain 1: not shown
T5 chain 2: not shown

[6] = molecular target: T6, HLA-DR molecule DRB1*0401 (human); assay: radioligand inhibition, purified HLA-DR
T6 chain 1: not shown
T6 chain 2: not shown

[7] = molecular target: T7, HLA-DR molecule DRB1*1201 (human); assay: radioligand inhibition, purified HLA-DR
T7 chain 1: not shown
T7 chain 2: not shown

[8] = molecular target: T8, HLA-DR molecule DRB4*0101 (human); assay: radioligand inhibition, purified HLA-DR
T8 chain 1: not shown
T8 chain 2: not shown

[9] = molecular target: T9, HLA-DR molecule DRB1*1101 (human); assay: radioligand inhibition, purified HLA-DR
T9 chain 1: not shown
T9 chain 2: not shown

[10] = molecular target: T10, HLA-DR molecule DRB1*0802 (human); assay: radioligand inhibition, purified HLA-DR
T10 chain 1: not shown
T10 chain 2: not shown

[11] = molecular target: T11, HLA-DR molecule DRB1*1302 (human); assay: radioligand inhibition, purified HLA-DR
T11 chain 1: not shown
T11 chain 2: not shown

[12] = molecular target: HLA-DR DRB3*0101 (human); assay: radioligand inhibition, purified HLA-DR
[13] = molecular target: T12, HLA-DR DRB1*0404 (human); assay: radioligand inhibition, purified HLA-DR
T12 chain 1: not shown
T12 chain 2: not shown

[14] = molecular target: T13, HLA-DR DRB1*1201 (human); assay: radioligand inhibition, purified HLA-DR
T13 chain 1: not shown
T13 chain 2: not shown

[15] = molecular target: T14, HLA-DR DRB1*0101 (human); assay: radioligand inhibition, purified HLA-DR
T14 chain 1: not shown
T14 chain 2: not shown

[16] = molecular target: T15, HLA-DR DRB4*0101 (human); assay: radioligand inhibition, purified HLA-DR
T15 chain 1: not shown
T15 chain 2: not shown

[17] = molecular target: T16, HLA-DR DRB1*1302 (human); assay: radioligand competition, purified HLA-DR
T16 chain 1: not shown
T16 chain 2: not shown

[18] = molecular target: T12, HLA-DR DRB1*0404 (human); assay: radioligand competition, purified HLA-DR
[19] = molecular target: T17, HLA-DR DRB1*1101 (human); assay: radioligand competition, purified HLA-DR
T17 chain 1: not shown
T17 chain 2: not shown

[20] = molecular target: T15, HLA-DR DRB4*0101 (human); assay: radioligand competition, purified HLA-DR
[21] = molecular target: T18, HLA-DR DRB5*0101 (human); assay: radioligand competition, purified HLA-DR
T18 chain 1: not shown
T18 chain 2: not shown

[22] = molecular target: T13, HLA-DR DRB1*1201 (human); assay: radioligand competition, purified HLA-DR
[23] = molecular target: T19, HLA-DR DRB1*0701 (human); assay: radioligand competition, purified HLA-DR
T19 chain 1: not shown
T19 chain 2: not shown

[24] = molecular target: T14, HLA-DR DRB1*0101 (human); assay: radioligand competition, purified HLA-DR
[25] = molecular target: T20, HLA-DR DRB1*0401 (human); assay: radiolabeled-peptide inhibition, purified HLA-DR
T20 chain 1: not shown
T20 chain 2: not shown

[26] = molecular target: T18, HLA-DR DRB5*0101 (human); assay: radiolabeled-peptide inhibition, purified HLA-DR
[27] = molecular target: T12, HLA-DR DRB1*0404 (human); assay: radiolabeled-peptide inhibition, purified HLA-DR
[28] = molecular target: T21, HLA-DR DRB1*0405 (human); assay: radiolabeled-peptide inhibition, purified HLA-DR
T21 chain 1: not shown
T21 chain 2: not shown

[29] = molecular target: T13, HLA-DR DRB1*1201 (human); assay: radiolabeled-peptide inhibition, purified HLA-DR
[30] = molecular target: T19, HLA-DR DRB1*0701 (human); assay: radiolabeled-peptide inhibition, purified HLA-DR
[31] = molecular target: T14, HLA-DR DRB1*0101 (human); assay: radiolabeled-peptide inhibition, purified HLA-DR
[32] = molecular target: T22, HLA-DR DRB1*0301 (human); assay: radiolabeled-peptide inhibition, purified HLA-DR
T22 chain 1: not shown
T22 chain 2: not shown

[33] = molecular target: T15, HLA-DR DRB4*0101 (human); assay: radiolabeled-peptide inhibition, purified HLA-DR
[34] = molecular target: T23, HLA-DR DRB1*0802 (human); assay: radioligand competition, purified HLA-DR
T23 chain 1: not shown
T23 chain 2: not shown

[35] = molecular target: T21, HLA-DR DRB1*0405 (human); assay: radioligand competition, purified HLA-DR
[36] = molecular target: T22, HLA-DR DRB1*0301 (human); assay: radioligand competition, purified HLA-DR

IC50 [1]: 17 nM | IC50 [2]: 94 nM | IC50 [3]: 8.2 nM
Binder: LREVRAVTSANIQEF [Peptide 9019.0046 (Her2/neu.350)]

IC50 [1]: 7.7 nM | IC50 [2]: 4000 nM | IC50 [3]: 29 nM | IC50 [4]: 110 nM | IC50 [5]: 18 nM
Binder: ERGPLEHLYSLHIPN [Peptide 9019.0190 (IGFBP2.249)]

IC50 [6]: 840 nM | IC50 [7]: 42 nM | IC50 [3]: 78 nM | IC50 [8]: 18 nM | IC50 [9]: 21 nM | IC50 [10]: 85 nM | IC50 [4]: 1300 nM | IC50 [11]: 270 nM | IC50 [5]: 80 nM
Binder: HNQVRQVPLQRLRIV [Peptide 9019.0034 (Her2/neu.88)]

IC50 [12]: 18.9 µM | IC50 [13]: 3.19 µM | IC50 [14]: 1860 nM | IC50 [15]: 2490 nM | IC50 [16]: 5.31 µM
Binder: CHLFYNEQQEARGVH [Peptide 9019.0023]

IC50 [10]: 260 nM | IC50 [4]: 34 nM
Binder: LKSGMKELAVFREKV [Peptide 9019.0185 (IGFBP2.184)]

IC50 [17]: 35 nM | IC50 [18]: 41 nM | IC50 [19]: 6 µM | IC50 [20]: 53 nM
Binder: TAKLTIESTPFNVAE [CEA.33 (peptide 9019.0106)]

IC50 [21]: 13 nM | IC50 [18]: 52 nM | IC50 [22]: 5 µM | IC50 [23]: 3.7 nM | IC50 [24]: 6.9 nM | IC50 [19]: 0.052 µM
Binder: LLTFWNPPTTAKLTI [CEA.24 (peptide 9019.0105)]

IC50 [25]: 1030 nM | IC50 [26]: 3.78 µM | IC50 [27]: 493 nM | IC50 [28]: 5.12 µM | IC50 [29]: 19 µM | IC50 [30]: 271 nM | IC50 [31]: 130 nM | IC50 [32]: 265 nM | IC50 [33]: 444 nM
Binder: CYGLGMEHLREVRAV [9019.0044]

IC50 [17]: 55 nM | IC50 [24]: 6.8 nM | IC50 [34]: 1400 nM | IC50 [20]: 91 nM
Binder: PPSMVAAGSVVAAVQ [Cyclin D1.199 (peptide 9019.0170)]

IC50 [21]: 4500 nM | IC50 [18]: 169 nM | IC50 [35]: 41 nM | IC50 [23]: 56 nM | IC50 [36]: 80 nM | IC50 [20]: 22 nM
Binder: FYTLHVIKSDLVNEE [CEA.119 (peptide 9019.0114)]
